# Laboratory results published in publication PMC3553216 (Biochemistry, 2013).
# Where two headings read alike, the source gives them in different places.
# B1: wild-type full-length Staphylococcus aureus pyruvate carboxylase (enzyme, UniProt A0A0H3JRU9 1-1150, looked up)
# chain: MKQIKKLLVANRGEIAIRIFRAAAELDISTVAIYSNEDKSSLHRYKADESYLVGSDLGPAESYLNIERIIDVAKQANVDAIHPGYGFLSENEQFARRCAEEGIKFIGPHLEHLDMFGDKVKARTTAIKADLPVIPGTDGPIKSYELAKEFAEEAGFPLMIKATSGGGGKGMRIVREESELEDAFHRAKSEAEKSFGNSEVYIERYIDNPKHIEVQVIGDEHGNIVHLFERDCSVQRRHQKVVEVAPSVGLSPTLRQRICDAAIQLMENIKYVNAGTVEFLVSGDEFFFIEVNPRVQVEHTITEMVTGIDIVKTQILVAAGADLFGEEINMPQQKDITTLGYAIQCRITTEDPLNDFMPDTGTIIAYRSSGGFGVRLDAGDGFQGAEISPYYDSLLVKLSTHAISFKQAEEKMVRSLREMRIRGVKTNIPFLINVMKNKKFTSGDYTTKFIEETPELFDIQPSLDRGTKTLEYIGNVTINGFPNVEKRPKPDYELASIPTVSSSKIASFSGTKQLLDEVGPKGVAEWVKKQDDVLLTDTTFRDAHQSLLATRVRTKDMINIASKTADVFKDGFSLEMWGGATFDVAYNFLKENPWERLERLRKAIPNVLFQMLLRASNAVGYKNYPDNVIHKFVQESAKAGIDVFRIFDSLNWVDQMKVANEAVQEAGKISEGTICYTGDILNPERSNIYTLEYYVKLAKELEREGFHILAIKDMAGLLKPKAAYELIGELKSAVDLPIHLHTHDTSGNGLLTYKQAIDAGVDIIDTAVASMSGLTSQPSANSLYYALNGFPRHLRTDIEGMESLSHYWSTVRTYYSDFESDIKSPNTEIYQHEMPGGQYSNLSQQAKSLGLGERFDEVKDMYRRVNFLFGDIVKVTPSSKVVGDMALYMVQNDLDEQSVITDGYKLDFPESVVSFFKGEIGQPVNGFNKDLQAVILKGQEALTARPGEYLEPVDFEKVRELLEEEQQGPVTEQDIISYVLYPKVYEQYIQTRNQYGNLSLLDTPTFFFGMRNGETVEIEIDKGKRLIIKLETISEPDENGNRTIYYAMNGQARRIYIKDENVHTNANVKPKADKSNPSHIGAQMPGSVTEVKVSVGETVKANQPLLITEAMKMETTIQAPFDGVIKQVTVNNGDTIATGDLLIEIEKATD
# Key:
# AUC [1] = assay: AUC
# [2] = target: full-length SaPC R54E mutant (Staphylococcus aureus); assay: SEC
# [3] = target: full-length SaPC R54E mutant (Staphylococcus aureus); assay: AUC
# [4] = target: full-length SaPC R54E mutant (Staphylococcus aureus); assay: AUC; remark: listed apart in the source
# [5] = target: isolated BC domain of SaPC, R54E mutant (Staphylococcus aureus); assay: AUC
# [6] = target: full-length SaPC F403A mutant (Staphylococcus aureus); assay: SEC
# [7] = target: full-length SaPC F403A mutant (Staphylococcus aureus); assay: AUC
# [8] = target: full-length SaPC F403A mutant (Staphylococcus aureus); assay: AUC; remark: listed apart in the source
# [9] = target: full-length SaPC K442E mutant (Staphylococcus aureus); assay: SEC
# [10] = target: full-length SaPC K442E mutant (Staphylococcus aureus); assay: AUC
# [11] = target: full-length SaPC K442E mutant (Staphylococcus aureus); assay: AUC; remark: listed apart in the source
# AUC [12] = target: the molecule itself; assay: AUC
# AUC [13] = target: the molecule itself; assay: AUC; remark: listed apart in the source
molecule,measurement,setting,value
full-length SaPC R54E mutant,Monomer (%),AUC [1],4%
full-length SaPC R54E mutant (enzyme),stoichiometry N,[2],4
same,Dimer (%),[3],0%
same,Kd,[3],530 nM
same,Tetramer (%),[3],96%
same,Kd,[4],3 nM
full-length SaPC K442E mutant,Monomer (%),AUC [1],10%
"isolated BC domain of SaPC, R54E mutant (domain or fragment)",Kd,[5],195000 nM
full-length SaPC F403A mutant,Monomer (%),AUC [1],9%
full-length SaPC F403A mutant (enzyme),stoichiometry N,[6],4
same,Dimer (%),[7],2%
same,Kd,[7],450 nM
same,Tetramer (%),[7],85%
same,Kd,[8],11 nM
full-length SaPC K442E mutant (enzyme),stoichiometry N,[9],2
same,Dimer (%),[10],65%
same,Kd,[10],820 nM
same,Kd,[11],840000 nM
B1,Kd,AUC [12],8 ± 0.6 nM
same,Kd,AUC [13],750 ± 60 nM
